Experimental findings from PMC10107544, “Selecting Better Biocatalysts by Complementing Recoded Bacteria” (Angewandte Chemie (International Ed. in English), 2022) are described below.

Format in all cases: biochemical, Sinorhizobium meliloti
Common to all, as to details: free enzyme; kinetic pH and metal not given

Substrate in series [1]: NC(=O)N[C@@H](Cc1ccc(O)c([N+](=O)[O-])c1)C(=O)O
Nature of the series: HPLC saturation kinetics, Michaelis-Menten fit. The text has this:
HPLC saturation kinetics, Michaelis-Menten fit on […]

Substrate in series [2]: NC(=O)N[C@@H](Cc1ccc(O)c(I)c1)C(=O)O
Nature of the series: saturation kinetics, Michaelis-Menten fit. The source says: (§1) saturation kinetics, Michaelis-Menten fit on […]

Substrate in series [3]: NC(=O)N[C@@H](Cc1ccc(O)c([N+](=O)[O-])c1)C(=O)O
Nature of the series: saturation kinetics, Michaelis-Menten fit.
Excerpt: as §1

Broadly, the kcat is the number of substrate molecules converted per active site and unit of time at saturation. By kcat/Km is commonly meant the turnover number divided by the Michaelis constant.

B1: SmLcar (Sinorhizobium meliloti) (protein)
chain: MAAPGENRRVNADRLWDSLMEMAKIGPGVAGGNNRQTLTDADGEGRRLFQSWCEEAGLSMGVDKMGTMFLTRPGTDPDALPVHIGSHLDTQPTGGKFDGVLGVLSGLEAVRTMNDLGIKTKHPIVVTNWTNEEGARFAPAMLASGVFAGVHTLEYAYARKDPEGKSFGDELKRIGWLGDEEVGARKMHAYFEYHIEQGPILEAENKQIGVVTHCQGLWWLEFTLTGREAHTGSTPMDMRVNAGLAMARILEMVQTVAMENQPGAVGGVGQMFFSPNSRNVLPGKVVFTVDIRSPDQAKLDGMRARIEAEAPKICERLGVGCSIEAVGHFDPVTFDPKLVETVRGAAEKLGYSHMNLVSGAGHDACWAAKVAPTTMIMCPCVGGLSHNEAEDISREWAAAGADVLFHAVLETAEIVE
notes: recombinant, produced from plasmid and purified; bivalent metal-dependent
In the case of B1, in series [1], the Km is given as 2.98 (0.87) mM, the kcat was found to be 0.000105 ± 1.01e-05 s⁻¹ and the kcat/Km turned out to be 0.0354 ± 0.00977 M⁻¹ s⁻¹. In addition, in series [2], the Km is 13.8 (7.91) mM, the kcat was determined as 6.92e-05 ± 2.09e-05 s⁻¹ and the catalytic efficiency (kcat/Km) came to 0.005 ± 0.00315 M⁻¹ s⁻¹.

B2: SmLcar (Sinorhizobium meliloti; F329C/L217G) (protein)
chain: MAAPGENRRVNADRLWDSLMEMAKIGPGVAGGNNRQTLTDADGEGRRLFQSWCEEAGLSMGVDKMGTMFLTRPGTDPDALPVHIGSHLDTQPTGGKFDGVLGVLSGLEAVRTMNDLGIKTKHPIVVTNWTNEEGARFAPAMLASGVFAGVHTLEYAYARKDPEGKSFGDELKRIGWLGDEEVGARKMHAYFEYHIEQGPILEAENKQIGVVTHCQGGWWLEFTLTGREAHTGSTPMDMRVNAGLAMARILEMVQTVAMENQPGAVGGVGQMFFSPNSRNVLPGKVVFTVDIRSPDQAKLDGMRARIEAEAPKICERLGVGCSIEAVGHCDPVTFDPKLVETVRGAAEKLGYSHMNLVSGAGHDACWAAKVAPTTMIMCPCVGGLSHNEAEDISREWAAAGADVLFHAVLETAEIVE
notes: as for B1
With B2, in series [2], the Km is given as 5.71 (1.14) mM, the kcat was determined as 4.84 s⁻¹ and the kcat/Km was 849 M⁻¹ s⁻¹. Besides, in series [3], the Km was 2.92 (0.95) mM, the kcat is 0.32 s⁻¹ and the kcat/Km worked out at 108 M⁻¹ s⁻¹.

B3: SmLcar (Sinorhizobium meliloti; L217G) (protein)
chain: MAAPGENRRVNADRLWDSLMEMAKIGPGVAGGNNRQTLTDADGEGRRLFQSWCEEAGLSMGVDKMGTMFLTRPGTDPDALPVHIGSHLDTQPTGGKFDGVLGVLSGLEAVRTMNDLGIKTKHPIVVTNWTNEEGARFAPAMLASGVFAGVHTLEYAYARKDPEGKSFGDELKRIGWLGDEEVGARKMHAYFEYHIEQGPILEAENKQIGVVTHCQGGWWLEFTLTGREAHTGSTPMDMRVNAGLAMARILEMVQTVAMENQPGAVGGVGQMFFSPNSRNVLPGKVVFTVDIRSPDQAKLDGMRARIEAEAPKICERLGVGCSIEAVGHFDPVTFDPKLVETVRGAAEKLGYSHMNLVSGAGHDACWAAKVAPTTMIMCPCVGGLSHNEAEDISREWAAAGADVLFHAVLETAEIVE
notes: as for B1
For the protein B3, in series [2], the Km is given as 2.58 (0.46) mM, the catalytic constant (kcat) turned out to be 0.232 s⁻¹ and the kcat/Km was determined as 89.9 M⁻¹ s⁻¹. Moreover, in series [3], the Km is 8.91 (2.81) mM, the catalytic constant (kcat) was determined as 0.0929 ± 0.0136 s⁻¹ and the kcat/Km worked out at 10.4 M⁻¹ s⁻¹.

B4: SmLcar (Sinorhizobium meliloti; F329Y/L217G) (protein)
chain: MAAPGENRRVNADRLWDSLMEMAKIGPGVAGGNNRQTLTDADGEGRRLFQSWCEEAGLSMGVDKMGTMFLTRPGTDPDALPVHIGSHLDTQPTGGKFDGVLGVLSGLEAVRTMNDLGIKTKHPIVVTNWTNEEGARFAPAMLASGVFAGVHTLEYAYARKDPEGKSFGDELKRIGWLGDEEVGARKMHAYFEYHIEQGPILEAENKQIGVVTHCQGGWWLEFTLTGREAHTGSTPMDMRVNAGLAMARILEMVQTVAMENQPGAVGGVGQMFFSPNSRNVLPGKVVFTVDIRSPDQAKLDGMRARIEAEAPKICERLGVGCSIEAVGHYDPVTFDPKLVETVRGAAEKLGYSHMNLVSGAGHDACWAAKVAPTTMIMCPCVGGLSHNEAEDISREWAAAGADVLFHAVLETAEIVE
notes: as for B1
Regarding B4, in series [2], the Km is recorded as 1.45 (0.16) mM, the kcat was 0.231 s⁻¹ and the specificity constant (kcat/Km) came to 159 M⁻¹ s⁻¹. Further, in series [3], the Km is on record as 5.30 (0.88) mM, the turnover number (kcat) worked out at 0.78 s⁻¹ and the kcat/Km amounted to 148 M⁻¹ s⁻¹.
